Here are results for one variant from IntAct's records for PubMed 33758649.

The chains are these.
B1: Protein PALS1 (Homo sapiens), Q8N3R9 (parent)
chain: MTTSHMNGHVTEESDSEVKNVDLASPEEHQKHREMAVDCPGDLGTRMMPIRRSAQLERIRQQQEDMRRRREEEGKKQELDLNSSMRLKKLAQIPPKTGIDNPMFDTEEGIVLESPHYAVKILEIEDLFSSLKHIQHTLVDSQSQEDISLLLQLVQNKDFQNAFKIHNAITVHMNKASPPFPLISNAQDLAQEVQTVLKPVHHKEGQELTALLNTPHIQALLLAHDKVAEQEMQLEPITDERVYESIGQYGGETVKIVRIEKARDIPLGATVRNEMDSVIISRIVKGGAAEKSGLLHEGDEVLEINGIEIRGKDVNEVFDLLSDMHGTLTFVLIPSQQIKPPPAKETVIHVKAHFDYDPSDDPYVPCRELGLSFQKGDILHVISQEDPNWWQAYREGDEDNQPLAGLVPGKSFQQQREAMKQTIEEDKEPEKSGKLWCAKKNKKKRKKVLYNANKNDDYDNEEILTYEEMSLYHQPANRKRPIILIGPQNCGQNELRQRLMNKEKDRFASAVPHTTRSRRDQEVAGRDYHFVSRQAFEADIAAGKFIEHGEFEKNLYGTSIDSVRQVINSGKICLLSLRTQSLKTLRNSDLKPYIIFIAPPSQERLRALLAKEGKNPKPEELREIIEKTREMEQNNGHYFDTAIVNSDLDKAYQELLRLINKLDTEPQWVPSTWLR
partner: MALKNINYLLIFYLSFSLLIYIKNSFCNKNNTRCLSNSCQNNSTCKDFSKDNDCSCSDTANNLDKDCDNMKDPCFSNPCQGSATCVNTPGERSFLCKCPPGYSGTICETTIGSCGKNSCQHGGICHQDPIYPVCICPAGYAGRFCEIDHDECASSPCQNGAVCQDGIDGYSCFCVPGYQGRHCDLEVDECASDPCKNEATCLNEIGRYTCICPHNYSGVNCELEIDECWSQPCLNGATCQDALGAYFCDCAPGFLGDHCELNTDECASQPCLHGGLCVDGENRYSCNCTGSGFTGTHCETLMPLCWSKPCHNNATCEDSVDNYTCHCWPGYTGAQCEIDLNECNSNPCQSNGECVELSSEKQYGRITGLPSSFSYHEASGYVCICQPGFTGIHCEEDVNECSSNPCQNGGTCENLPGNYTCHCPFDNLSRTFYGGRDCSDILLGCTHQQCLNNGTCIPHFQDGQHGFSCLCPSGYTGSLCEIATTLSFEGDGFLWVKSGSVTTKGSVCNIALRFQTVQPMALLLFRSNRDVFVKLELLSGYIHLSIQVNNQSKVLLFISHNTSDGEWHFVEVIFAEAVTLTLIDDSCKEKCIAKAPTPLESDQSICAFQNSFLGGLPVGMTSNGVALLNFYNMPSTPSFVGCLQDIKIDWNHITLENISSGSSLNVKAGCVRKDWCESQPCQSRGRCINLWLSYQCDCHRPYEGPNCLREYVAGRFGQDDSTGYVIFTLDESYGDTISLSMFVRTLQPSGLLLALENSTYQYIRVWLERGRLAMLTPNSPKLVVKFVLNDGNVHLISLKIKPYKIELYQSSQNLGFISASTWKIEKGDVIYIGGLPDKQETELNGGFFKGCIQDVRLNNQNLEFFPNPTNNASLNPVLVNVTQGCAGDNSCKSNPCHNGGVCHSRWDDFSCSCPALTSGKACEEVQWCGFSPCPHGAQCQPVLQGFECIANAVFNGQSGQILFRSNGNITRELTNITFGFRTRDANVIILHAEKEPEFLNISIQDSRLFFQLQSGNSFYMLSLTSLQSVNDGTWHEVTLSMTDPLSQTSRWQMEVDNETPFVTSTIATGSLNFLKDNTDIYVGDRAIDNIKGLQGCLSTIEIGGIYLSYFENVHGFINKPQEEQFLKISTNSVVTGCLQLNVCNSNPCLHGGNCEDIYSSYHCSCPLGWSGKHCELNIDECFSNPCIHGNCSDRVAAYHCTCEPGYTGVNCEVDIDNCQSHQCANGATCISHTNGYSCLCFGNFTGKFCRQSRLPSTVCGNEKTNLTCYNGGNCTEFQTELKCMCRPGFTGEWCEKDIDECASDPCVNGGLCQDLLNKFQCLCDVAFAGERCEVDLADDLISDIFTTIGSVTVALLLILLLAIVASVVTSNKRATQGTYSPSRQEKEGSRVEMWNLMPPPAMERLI

The experiment covers variants of B1. As to conditions: with crum1_human CRB1, P82279.
On to F318W, for which the “effect of a mutation on the interaction” value is listed as “decreasing interaction strength”.
